# US7560248 (WISCONSIN ALUMNI RESEARCH FOUNDATION, dated 2009)
# Changes are numbered by the printed parent chain. In names and notes the source's numbering stands.
# T1: wild-type human ribonuclease inhibitor (human, UniProt P13489 2-461, limits assumed)
# T1 construct: Made in E. coli from plasmid pET-RI; also called hRI; wild-type hRI
# T1 sequence: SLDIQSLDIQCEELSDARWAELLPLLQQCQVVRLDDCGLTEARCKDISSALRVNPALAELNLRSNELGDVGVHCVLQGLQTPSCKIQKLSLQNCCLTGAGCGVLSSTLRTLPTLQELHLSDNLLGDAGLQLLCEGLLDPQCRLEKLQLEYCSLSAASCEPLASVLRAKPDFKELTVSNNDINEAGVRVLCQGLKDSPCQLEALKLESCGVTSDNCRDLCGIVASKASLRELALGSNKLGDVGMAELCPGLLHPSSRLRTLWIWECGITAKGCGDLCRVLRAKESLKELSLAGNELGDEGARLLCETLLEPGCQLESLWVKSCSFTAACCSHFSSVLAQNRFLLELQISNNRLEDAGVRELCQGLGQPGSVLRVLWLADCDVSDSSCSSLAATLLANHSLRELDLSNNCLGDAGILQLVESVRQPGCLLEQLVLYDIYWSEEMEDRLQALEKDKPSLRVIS
# T2: C95A/C96A human ribonuclease inhibitor (human, UniProt P13489 2-461, limits assumed)
# T2 construct: also called C95A/C96A hRI
# T2 sequence: T1 sequence with C94A, C95A
# T3: C329A/C330A human ribonuclease inhibitor (human, UniProt P13489 2-461, limits assumed)
# T3 construct: also called C329A/C330A hRI
# T3 sequence: T1 sequence with C328A, C329A
# T4: C329A human ribonuclease inhibitor (human, UniProt P13489 2-461, limits assumed)
# T4 construct: also called C329A hRI
# T4 sequence: T1 sequence with C328A
# T5: C330A human ribonuclease inhibitor (human, UniProt P13489 2-461, limits assumed)
# T5 construct: also called C330A hRI
# T5 sequence: T1 sequence with C329A
# B1: C95A/C96A/C329A/C330A human ribonuclease inhibitor (other)
# chain: T1 sequence with C94A, C95A, C328A, C329A
# notes: Variant with all four substitutions; also called C95A/C96A/C329A/C330A hRI
# B2: ribonuclease A (enzyme, UniProt P61823 27-150, looked up)
# chain: KETAAAKFERQHMDSSTSAASSSNYCNQMMKSRNLTKDRCKPVNTFVHESLADVQAVCSQKNVACKNGQTNCYQSYSTMSITDCRETGSSKYPNCAYKTTQANKHIIVACEGNPYVPVHFDASV
# notes: also called RNASE A; RNase A
# Experiments:
# ribonuclease A = target: B2; assay: affinity chromatography on RNase A-Sepharose 4B resin
# [1] = target: T1, wild-type human ribonuclease inhibitor; assay: as above
# [2] = target: T2, C95A/C96A human ribonuclease inhibitor; assay: as above
# [3] = target: T3, C329A/C330A human ribonuclease inhibitor; assay: as above
# [4] = target: T4, C329A human ribonuclease inhibitor; assay: inhibition of RNase A activity, poly(C) cleavage assay
# Method: (§1) A solution (101) of 20 mM HEPES-HCl buffer, pH 7.6, containing KCl (50 mM) and RNASE A (80 nM) was added to each of the hRI solutions. The resulting mixtures were incubated at 37° C. for 5 min. The ribonucleolytic activity in each mixture was then assessed by using a spectrophotometric assay for poly(C) cleavage, as described (delCardayre et al., 1995), with [poly(C)]=37 μM. This experiment was performed at least twice with wild-type hRI and each variant.
# [5] = target: T5, C330A human ribonuclease inhibitor; assay: as above
# Method: as §1
binding result (ribonuclease A),binding result [1],binding result [2],binding result [3],binding result [4],binding result [5],Binder
binds,,,,,,B1
,binds,binds,binds,binds,binds,B2
